Data reported in PMC3985463.

Molecular target: His6-UP1 C43S/C175S (hnRNP A1 UP1 domain; ITC) (Homo sapiens, UniProt P09651 1-196, C43S;C175S)
Experiment: ITC

Chain of His6-UP1 C43S/C175S (hnRNP A1 UP1 domain; ITC) (P09651 1-196 C43S/C175S): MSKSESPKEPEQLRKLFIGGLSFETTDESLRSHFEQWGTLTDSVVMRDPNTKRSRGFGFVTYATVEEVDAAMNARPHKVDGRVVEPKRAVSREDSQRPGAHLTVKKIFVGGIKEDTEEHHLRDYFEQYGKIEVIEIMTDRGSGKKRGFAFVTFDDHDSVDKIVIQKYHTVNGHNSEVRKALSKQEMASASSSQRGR

## GAUUAG (ssRNA) [ESS3b loop]
  Kd: 4.17 ± 0.421 µM
